Tests used:
[1] = test system: T1, Lys(Dnp)-ATNATX4X3PRIVGG-Lys(Abz), X4 = P, X3 = N
T1 sequence: KATNATPNPRIVGGK

[2] = test system: T2, Lys(Dnp)-ATNATX4X3PRIVGG-Lys(Abz), X4 = S, X3 = V
T2 sequence: KATNATSVPRIVGGK

[3] = test system: T3, Lys(Dnp)-ATNATX4X3PRIVGG-Lys(Abz), X4 = Q, X3 = T
T3 sequence: KATNATQTPRIVGGK

[4] = test system: T4, Lys(Dnp)-ATNATX4X3PRIVGG-Lys(Abz), X4 = S, X3 = S
T4 sequence: KATNATSSPRIVGGK

[5] = test system: T5, Lys(Dnp)-ATNATX4X3PRIVGG-Lys(Abz), X4 = Y, X3 = V
T5 sequence: KATNATYVPRIVGGK

[6] = test system: T6, Lys(Dnp)-ATNATX4X3PRIVGG-Lys(Abz), X4 = H, X3 = K
T6 sequence: KATNATHKPRIVGGK

[7] = test system: T7, Lys(Dnp)-ATNATX4X3PRIVGG-Lys(Abz), X4 = S, X3 = I
T7 sequence: KATNATSIPRIVGGK

Substance: Human plasma purified Factor Xa
- FXa kcat/KM [1]: 580 M⁻¹ s⁻¹
- FXa kcat/KM [2]: 38 M⁻¹ s⁻¹
- FXa kcat/KM [3]: 920 M⁻¹ s⁻¹
- FXa kcat/KM [4]: 40 M⁻¹ s⁻¹
- FXa kcat/KM [5]: 49 M⁻¹ s⁻¹
- FXa kcat/KM [6]: 28 M⁻¹ s⁻¹
- FXa kcat/KM [7]: 55 M⁻¹ s⁻¹

— patent publication US20160024487
